Test results from patent US20240352093A1, “PEPTIDE AND GELATIN HYBRID HYDROGELS AS ECONOMICAL ALTERNATIVES TO COMMON BASEMENT-MEMBRANE MATRICES” (AGENCY FOR SCIENCE, TECHNOLOGY AND RESEARCH, priority 2021, published 2024).
No end group written: not given here.

Experiments:
SW480 tumor spheroids = assay: Cell viability (MTS) of SW480 tumor spheroids cultured in hydrogels; type: cell-based, human; details: Day 7; hybrid hydrogels peptide_0.25%/G_3% (FIG. 12B)
Experimental: Human hepatocellular carcinoma HepG2 and human colorectal adenocarcinoma SW480 were cultivated in Dulbecco's Modified Eagle Medium (DMEM), supplemented by 10% Fetal Bovine Serum and 1% Penicillin, incubated at 37° C., 5% CO2. To prepare the tumor spheroids, 200 μL of cell suspension (3500 cells/mL) were seeded per well onto 96-well ultralow adhesion round bottom plates (Corning, U.S.A.). After which, the plate was centrifuged for 5 min at 1500 rpm) and incubated at 37° C. for 2-3 days for the cells to assemble into tumor spheroids. The IVK8/gelatin hydrogels were then prepared according to the steps in Section 2.2 and was used right after mixing the peptide and gelatin together. A positive control group was set up using the basement membrane product, Geltrex™ (Thermofisher, U.S.A.). Geltrex was kept in an ice bath during the experiment. The hydrogels were transferred to the tumor spheroids by first removing 150 μL of the spent medium. Subsequently, 70 μL of the hydrogels were added per well and the samples and incubated at 37° C. for 30 min before 100 μL were added to each well. The spent medium was replaced once every 2 to 3 days by removing 80 μL medium and adding 80 μL fresh medium. The growth of the tumor spheroids was monitored over time using DMil inverted light microscope (Leica, U.S.A.).
The viability of tumor spheroids cultured in the hydrogels for 7 days was determined by the CellTiter 96 AQueous One Solution Cell Proliferation Assay (MTS) (Promega, U.S.A.). Briefly, 80 μL of the spent medium was removed from each well containing the tumor spheroids. Next, 80 μL containing DMEM: MTS at 1:1 volume ratio was then added back into the wells. The plate was then incubated at 37° C. for 4.5 h. After which, the medium was pipetted several times to break up any aggregates that may be present and 100 μL of this solution was transferred to a fresh 96 well plate. The absorbance of the samples was measured at wavelength 490 nm using a microplate reader (Tecan, Switzerland).

[1] = Gelation time by vial tilting method; type: physicochemical; details: 2% wt/vol.
Experimental: Vial tilting method was applied to determine the gelation time of the hydrogels. […] Rheology experiments were performed on a control-strain rheometer (ARES G2, TA instruments), as described previously. Briefly, a parallel plate measuring geometry (8 mm diameter, gap 1 mm) with oscillatory strain of 1% and the dynamic storage modulus (G′) and loss modulus (G″) were examined as a function of frequency from 1 to 100 rad/s. In addition, a flow sweep to study the viscosity changes as a function of shear rate of hydrogel samples.

[2] = Water retention of IVK8 peptide hydrogel; type: physicochemical; details: peptide hydrogel in water at high concentrations
[3] = Transparency and clarity of hydrogels (tube images, light microscopy); type: physicochemical; details: SW480 spheroids Day 7 (FIG. 13)
Experimental: IVK8 was dissolved in 300 mM sucrose sterile solution at a peptide concentration of 1.0% wt/vol. and stored at 4° C. until required. The peptide remains a solution at cold conditions (4° C. or ice bath). Gelatin was dissolved using sterile DI water at 60 mg/ml at 60° C. To form the hydrogel, gelatin was removed from the warm water bath and the cold IVK8 solution was added to the gelatin. DMEM was then added to this mixture at a volume ratio of 3:7 DMEM: mixture and was left to stand at 37° C. for 10 min for gelation to occur. The procedure for preparing IVK8 hydrogels was the same. Once formed, the gels remain stable at temperatures between 25 to 37° C. Similarly, the other peptide/gelatin hydrogels may be prepared by the same method described for IVK8, further detail and modifications of the general procedure may be found in WO2021015675. For example. IIK8, ILK8, IVK12, and IIK12 may be used instead of IVK8 to prepare the peptide/gelatin hydrogel. It may be observed from FIGS. 10A to 10 that shorter peptides result in clearer hydrogels. […] The high opacity of IVK12_0.25%/Gelatin_3% (FIG. 11D) and IIK12_0.25%/Gelatin_3% (FIG. 11E) may make them less suitable for 3D culture of tumor spheroid due to difficulties in observing the spheroids.

Row | Sequence | cell viability of SW480 tumor spheroids compared to Geltrex (SW480 tumor spheroids) | gelation time ([1]; 37° C.) | gelation time ([1]; room temperature (23-24° C.)) | water retention [2] | opacity of peptide/gelatin hybrid hydrogel in spheroid culture [3]
1 | IEVEIRVK (IEVEIRVK-NH2) [IVK8, self-assembling peptide] | no significant difference | less than 30 min | ≤ 60 min | ~99% | least opaque
2 | IRIKIEIEIRIK (IRIKIEIEIRIK-NH2) [IIK12, self-assembling peptide] | significantly lower viability | – | – | – | more opaque
3 | IRVKIEVEIRVK (IRVKIEVEIRVK-NH2) [IVK12, self-assembling peptide] | significantly lower viability | – | – | – | most opaque
4 | IELEIRLK (IELEIRLK-NH2) [ILK8, self-assembling peptide] | no significant difference | – | – | – | more opaque
5 | IEIEIRIK (IEIEIRIK-NH2) [IIK8, self-assembling peptide] | no significant difference | – | – | – | least opaque
